Measured values from the supplement of paper PMC12042874.
± gives the uncertainty stated by the source.

assay: amyloid nucleation score (Sup35N fusion, yeast selection) (log enrichment); library NNK3; higher = more nucleation; inactive = no reads after selection
Summary of the method: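 Using DiMSum, nucleation scores were taken as the log enrichment of output over input reads, centred on the mode score of non-aggregating sequences. The input and output reads came from Illumina sequencing of plasmid inserts, with sequences under 100 input reads excluded. The yeast were psi-negative, expressed Sup35N fused to peptides of 20 random codons, were induced with 100 μM copper sulfate for 24 hours, and were grown 7 days at 30°C on medium lacking adenine and uracil.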

Amyloid nucleation score, 1.79 ± 0.1:
DYNDCIKISIFLLYSPLIWC

Amyloid nucleation score, -0.08 ± 1:
ERRNRMFSWCWCSSSLLDAE

Amyloid nucleation score, 0.757 ± 0.17:
FACAFKSSCLNHLCSAVW

Amyloid nucleation score, 0.042 ± 0.64:
EVSWVSRNVWFNRTCFCVQV

Amyloid nucleation score, 0.65 ± 0.21:
EVKGTCWVCVLVHVATSYVG

Amyloid nucleation score, 1.14 ± 0.2:
FFIFRDVSTVDSLGPLYRLM

Amyloid nucleation score, -0.629 ± 1.2:
FDGTGRLRF

Amyloid nucleation score, 1.01 ± 0.17:
EAKLVGGFTDFRELITNCLV

Amyloid nucleation score, -0.436 ± 0.44:
EIMYVLTIFSNVFVMFFS

Amyloid nucleation score, 1.34 ± 0.12:
ECYFFHFTR

Amyloid nucleation score, 0.398 ± 0.18:
FCENRFTSFLKNVIIW

Amyloid nucleation score, 0.113 ± 0.31:
DWHAIFTMFECNMQRGKSAR

Amyloid nucleation score, -0.544 ± 0.66:
FDIYLCDMYSLIFVCTGRLP

Amyloid nucleation score, -0.166 ± 0.9:
DSVKSALRRGI

Amyloid nucleation score, -0.534 ± 0.87:
FECYRSSLGQWVMLDVSIHW

Amyloid nucleation score, 1.36 ± 0.078:
DYTRKVHTIEGSSYYWLNFS

Amyloid nucleation score, 0.145 ± 0.44:
DRLALEFVYRR

Amyloid nucleation score, -0.922 ± 1.5:
FFIYVQTGPS

Amyloid nucleation score, 0.677 ± 0.24:
DSLSGYSVPYWSSFMNPWTN

Amyloid nucleation score, inactive:
DLMTMSYRLMIIFLVDTWPR
DLPSMSIVIVIQKLYARVNR
DLSTTLINPIEEQPYHFAVP
DLVEVIYSVTSYYPNYLRAK
DLVMDFQ
DLVPVIHGIYWAG
DLVTSTGYSGVNAVSDIEDF
DMHGRSNNLW
DMINSGQISDHVLD
DMKNWPKDYQ
DMLFDQGLSCNGLI
DMVSRSSCSDL
DNSVALIDYSWAVTRI
DNWFN
DPFRLLGEY
DPYSDVQDKDTSDAGYASRV
DQRLFFGHGGFDAVSW
DRAGHGSV
DRDSALWIMTVWVRGSHYTR
DRELSFLPGYYLYARVRHKS
DRIVACKLKTGYTQGMVPLL
DRNEVLDQNVVDSEISTVLP
DRPRQRTAFVYRQWLMYYQ
DRTMQVIIYARQRVPLKWVS
DRVFLQPTCYITAGYGFRVM
DRYCLWVRCLVDAFMRPVVG
DSDVWANAGHRLSLKMI
DSDYGNVVWRFYRSYGCTGL
DSGLCV
DSHGYIYLCVWVRTQNPWSV
DSIFSWSFRGFSCVN
DSKQNYLIRVDRLFMECGLK
DSLSFGVVIFLYFKPGEFLY
DSLYWCSPFNGHCSDNNTQN
DSRMF
DSVFNL
DTLYGDYQGQRYSVALMKCV
DTPMESGTGATHLVRIVHSA
DTWMST
DVANKIVSKGRS
DVDVPT
DVFRRFAGRTLQLSPWDTTL
DVGLAVNTSHLWSYT
DVHWISGKSNYSDDNRCYST
DVLHLRCREVRRDVGYVTEF
DVSWRTPYTIKNYGSFFLIK
DVVGLVAGIVVKLILCSHYG
DVVLTNVFDCML
DVVSLGIMQKGSWSGCML
DWRMAYVSVC
DWSPLAGRRMTSAVDGVSMD
DWSWFK
DWSYEKWLACSGFYGRRRL
DYCLSLLWINMPHVGNIVNL
DYGATGHC
DYVCYLILVLEASRRNCRSS
DYYLNLGGK
EAGSTLWCGWKRYASCGRAE
EAHGYVR
EAPRFCSRAMDYVILQGWTL
ECELPNAPTCEICKIDSRLG
ECIGRKRELDLWSAARYAYS
ECLKPCSSNCTNRPTARPQC
ECTLGCTSDWGNLKARHGVR
ECVFIKFWVEGWKTLWSWSA
EDFNRILVRNVRS
EDIEMEMLLLGCNLEVLNAK
EDLVLRIDSTAACAELEKWL
EDPGLYFLRVS
EENTVSSTAIKNVVYSQFQV
EFMIIMYSHSLCVLQAVQLV
EFQGQTKSSWAYRLDKLCLP
EGEVCSVCY
EGHGGTRLSHRA
EGSIQMWTGTSLLDTRIWGG
EGVTII
EHLQRGSHLFSFSRSEI
EHVRVYFVLDYFDFCQAPAG
EICSSNKRQRLKRVMEVIFC
EIKYTDL
EIQVV
ELALISHTLGSSATPNWFTV
ELGFFCSL
ELGIII
ELIMCCHEYSVLAMRLLA
ELRLHNFTFRLVASFWLLRV
EMCINSVMMDATMSKH
EMPLF
ENALARMLAEEI
EPRGCYRQMLHKLIMS
EQGSSLHRHNHFVTLMGCRG
ERSHVCCGNDRYTLLWRVYS
ERVLRVNHYWICSFPFNPGV
ESETWSTYSALQHGQVAIGC
ESLIGSQGQRSNYNIMGNGW
ESLNGLNRSHA
ESMISNGFWGLRARCSVINM
ESSHRTSIFRDWCNSLLI
ESSMFARDTLWMSFVRTMHS
ETECVFSDYHSKVNICGGSL
ETRFIYAFYFD
ETWLKTINRLGLNRSHLSIL
ETYHCIV
EVDFVALIPCSQTVLFTVEV
EVFARIVPRDMMLFLILIIP
EVFGVIDDNYFCR
EVIRCRSSEEIPGRTNSMWD
EVLSMYRCSNVFLWFTKFIA
EVVVELIMLS
EYYRWFYN
FAICMFRGYLLYFLGLEDEA
FALLMCDSHRSCNNVNNFVH
FANKTRYSPWSCNPVFWYDR
FAQYYDSVPIDEDTIQIVHI
FATFYVQQGFGNFAPKAYS
FCMRMDRLQLRIADSLLRFF
FCPTVCQFMVPPPHPSKKLY
FCTFSLRHYVTKNGPVCPTK
FCYLPRALCEVLNRCLLNSL
FDFARWKDMKRESFLFLDVR
FDFRFYQVVVGGCRIETVIV
FDKGFLMTLNTLAVLSNQE
FDLSLDSMKFEAFYFVVRLV
FDRLNRDDVIFPSRDFNVSS
FDVDGLILFICWCMQRAHM
FEEYAIYPVAKGSVKMDAAL
FFCMWDRMIALWSHFCNLDG
FFFRYILKGMPVLFAVCRHC
FFHFSNVCTWVPDYSETSPS
FFHSIPKFFRAQKMCTYVPP
FFKDSIVLGVSLRYQFSYLT

Amyloid nucleation score, 1.25 ± 0.11:
ESTIEMIAL

Amyloid nucleation score, 2.06 ± 0.068:
DYCGDCMILFCTLVGYDRCT

Amyloid nucleation score, -1.35 ± 1.8:
DLSVYYVLLFVCDGL

Amyloid nucleation score, 0.547 ± 0.22:
DLVYHIEDMFGSMR

Amyloid nucleation score, 1.54 ± 0.096:
FAQLISYHSMLTCCKMTM

Amyloid nucleation score, 1.23 ± 0.094:
ERRIDG

Amyloid nucleation score, -0.116 ± 1.4:
DTFMDSMLYTGLSIPCKVLL

Amyloid nucleation score, 0.665 ± 0.14:
FFGPLPRTAIYQHILCTRNG

Amyloid nucleation score, 1.83 ± 0.083:
EVFVLNYNWNVCHWLFVADV
